Reference: patent publication US20070134660

B1: KIF14 motor domain V342-D710 (SEQ ID NO:5) (protein)
chain: MVQNTSAGKDPLKVENSQVTVAVRVRPFTKREKIEKASQVVFMSGKEITVEHPDTKQVYNFIYDVSFWSFDECHPHYASQTTVYEKLAAPLLERAFEGFNTCLFAYGQTGSGKSYTMMGFSEEPGIIPRFCEDLFSQVARKQTQEVSYHIEMSFFEVYNEKIHDLLVCKDENGQRKQPLRVREHPVYGPYVEALSMNIVSSYADIQSWLELGNKQRATAATGMNDKSSRSHSVFTLVMTQTKTEFVEGEEHDHRITSRINLIDLAGSERCSTAHTNGDRLKEGVSINKSLLTLGKVISALSEQANQRSVFIPYRESVLTWLLKESLGGNSKTAMIATISPAASNIEETLSTLRYANQARLIVNIAKVNEDLEHHHHHHHHHHHH
B2: KIF14 motor domain V354-K720 (SEQ ID NO:6) (protein)
chain: MVENSQVTVAVRVRPFTKREKIEKASQVVFMSGKEITVEHPDTKQVYNFIYDVSFWSFDECHPHYASQTTVYEKLAAPLLERAFEGFNTCLFAYGQTGSGKSYTMMGFSEEPGIIPRFCEDLFSQVARKQTQEVSYHIEMSFFEVYNEKIHDLLVCKDENGQRKQPLRVREHPVYGPYVEALSMNIVSSYADIQSWLELGNKQRATAATGMNDKSSRSHSVFTLVMTQTKTEFVEGEEHDHRITSRINLIDLAGSERCSTAHTNGDRLKEGVSINKSLLTLGKVISALSEQANQRSVFIPYRESVLTWLLKESLGGNSKTAMIATISPAASNIEETLSTLRYANQARLIVNIAKVNEDMNAKLIRELKLEHHHHHHHHHHHH
B3: KIF14 motor domain V354-D710 (SEQ ID NO:7) (protein)
chain: MVENSQVTVAVRVRPFTKREKIEKASQVVFMSGKEITVEHPDTKQVYNFIYDVSFWSFDECHPHYASQTTVYEKLAAPLLERAFEGFNTCLFAYGQTGSGKSYTMMGFSEEPGIIPRFCEDLFSQVARKQTQEVSYHIEMSFFEVYNEKIHDLLVCKDENGQRKQPLRVREHPVYGPYVEALSMNIVSSYADIQSWLELGNKQRATAATGMNDKSSRSHSVFTLVMTQTKTEFVEGEEHDHRITSRINLIDLAGSERCSTAHTNGDRLKEGVSINKSLLTLGKVISALSEQANQRSVFIPYRESVLTWLLKESLGGNSKTAMIATISPAASNIEETLSTLRYANQARLIVNIAKVNEDLEHHHHHHHHHHHH
B4: KIF14 motor domain V342-K720 (SEQ ID NO:4) (protein)
chain: MVQNTSAGKDPLKVENSQVTVAVRVRPFTKREKIEKASQVVFMSGKEITVEHPDTKQVYNFIYDVSFWSFDECHPHYASQTTVYEKLAAPLLERAFEGFNTCLFAYGQTGSGKSYTMMGFSEEPGIIPRFCEDLFSQVARKQTQEVSYHIEMSFFEVYNEKIHDLLVCKDENGQRKQPLRVREHPVYGPYVEALSMNIVSSYADIQSWLELGNKQRATAATGMNDKSSRSHSVFTLVMTQTKTEFVEGEEHDHRITSRINLIDLAGSERCSTAHTNGDRLKEGVSINKSLLTLGKVISALSEQANQRSVFIPYRESVLTWLLKESLGGNSKTAMIATISPAASNIEETLSTLRYANQARLIVNIAKVNEDMNAKLIRELKLEHHHHHHHHHHHH
B5: hu-KSP (1-367H) motor domain (SEQ ID NO:15) (protein)
chain: MASQPNSSAKKKEEKGKNIQVVVRCRPFNLAERKASAHSIVECDPVRKEVSVRTGGLADKSSRKTYTFDMVFGASTKQIDVYRSVVCPILDEVIMGYNCTIFAYGQTGTGKTFTMEGERSPNEEYTWEEDPLAGIIPRTLHQIFEKLTDNGTEFSVKVSLLEIYNEELFDLLNPSSDVSERLQMFDDPRNKRGVIIKGLEEITVHNKDEVYQILEKGAAKRTTAATLMNAYSSRSHSVFSVTIHMKETTIDGEELVKIGKLNLVDLAGSENIGRSGAVDKRAREAGNINQSLLTLGRVITALVERTPHVPYRESKLTRILQDSLGGRTRTSIIATISPASLNLEETLSTLEYAHRAKNILNKPEVNQHHHHHH
B6: hu_KIF3A (1-350H) motor domain (SEQ ID NO:16) (protein)
chain: MPINKSEKPESCDNVKVVVRCRPLNEREKSMCYKQAVSVDEMRGTITVHKTDSSNEPPKTFTFDTVFGPESKQLDVYNLTARPIIDSVLEGYNGTIFAYGQTGTGKTFTMEGVRAIPELRGIIPNSFAHIFGHIAKAEGDTRFLVRVSYLEIYNEEVRDLLGKDQTQRLEVKERPDVGVYIKDLSAYVVNNADDMDRIMTLGHKNRSVGATNMNEHSSRSHAIFTITIECSEKGIDGNMHVRMGKLHLVDLAGSERQAKTGATGQRLKEATKINLSLSTLGNVISALVDGKSTHVPYRNSKLTRLLQDSLGGNSKTMMCANIGPADYNYDETISTLRYANRAKNIKNKARVDKLAAALEHHHHHH
B7: hu_uKHC (1-337H) motor domain (SEQ ID NO:17) (protein)
chain: MADLAECNIKVMCRFRPLNESEVNRGDKYIAKFQGEDTVVIASKPYAFDRVFQSSTSQEQVYNDCAKKIVKDVLEGYNGTIFAYGQTSSGKTHTMEGKLHDPEGMGIIPRIVQDIFNYIYSMDENLEFHIKVSYFEIYLDKIRDLLDVSKTNLSVHEDKNRVPYVKGCTERFVCSPDEVMDTIDEGKSNRHVAVTNMNEHSSRSHSIFLINVKQENTQTEQKLSGKLYLVDLAGSEKVSKTGAEGAVLDEAKNINKSLSALGNVISALAEGSTYVPYRDSKMTRILQDSLGGNCRTTIVICCSPSSYNESETKSTLLFGQRAKTIKNTVCVNVELTAVDKLAAALEHHHHHH
B8: hu_nKHC (1-340H) motor domain (SEQ ID NO:18) (protein)
chain: MAETNNECSIKVLCRFRPLNQAEILRGDKFIPIFQGDDSVVIGGKPYVFDRVFPPNTTQEQVYHACAMQIVKDVLAGYNGTIFAYGQTSSGKTHTMEGKLHDPQLMGIIPRIARDIFNHIYSMDENLEFHIKVSYFEIYLDKIRDLLDVTKTNLSVHEDKNRVPFVKGCTERFVSSPEEILDVIDEGKSNRHVAVTNMNEHSSRSHSIFLINIKQENMETEQKLSGKLYLVDLAGSEKVSKTGAEGAVLDEAKNINKSLSALGNVISALAEGTKSYVPYRDSKMTRILQDSLGGNCRTTMFICCSPSSYNDAETKSTLMFGQRAKTIKNTASVNLELTAEVDKLAAALEHHHHHH
B9: hu_CENP-E (1-340H) motor domain (SEQ ID NO:19) (protein)
chain: MAEEGAVAVCVRVRPLNSREESLGETAQVYWKTDNNVIYQVDGSKSFNFDRVFHGNETTKNVYEEIAAPIIDSAIQGYNGTIFAYGQTASGKTYTMMGSEDHLGVIPRAIHDIFQKIKKFPDREFLLRVSYMEIYNETITDLLCGTQKMKPLIIREDVNRNVYVADLTEEVVYTSEMALKWITKGEKSRHYGETKMNQRSSRSHTIFRMILESREKGEPSNCEGSVKVSHLNLVDLAGSERAAQTGAAGVRLKEGCNINRSLFILGQVIKKLSDGQVGGFINYRDSKLTRILQNSLGGNAKTRIICTITPVSFDETLTALQFASTAKYMKNTPYVNEVSTVDKLAAALEHHHHHH
B10: hu_MKLP-1 (1-433H) motor domain (SEQ ID NO:20) (protein)
chain: MARAKTPRKPTVKKGSQTNLKDPVGVYCRVRPLGFPDQECCIEVINNTTVQLHTPEGYRLNRNGDYKETQYSFKQVFGTHTTQKELFDVVANPLVNDLIHGKNGLLFTYGVTGSGKTHTMTGSPGEGGLLPRCLDMIFNSIGSFQAKRYVFKSNDRNSMDIQCEVDALLERQKREAMPNPKTSSSKRQVDPEFADMITVQEFCKAEEVDEDSVYGVFVSYIEIYNNYIYDLLEEVPFDPIKPKPPQSKLLREDKNHNMYVAGCTEVEVKSTEEAFEVFWRGQKKRRIANTHLNRESSRSHSVFNIKLVQAPLDADGDNVLQEKEQITISQLSLVDLAGSERTNRTRAEGNRLREAGNINQSLMTLRTCMDVLRENQMYGTNKMVPYRDSKLTHLFKNYFDGEGKVRMIVCVNPKAEDYEENLQVMRFAEVTQEVDKLAAALEHHHHHH
B11: hu_KIF1B (1-350H) motor domain (SEQ ID NO:21) (protein)
chain: MSGASVKVAVRVRPFNSRETSKESKCIIQMQGNSTSIINPKNPKEAPKSFSFDYSYWSHTSPEDPCFASQNRVYNDIGKEMLLHAFEGYNVCIFAYGQTGAGKSYTMMGKQEESQAGIIPQLCEELFEKINDNCNEEMSYSVEVSYMEIYCERVRDLLNPKNKGNLRVREHPLLGPYVEDLSKLAVTSYTDIADLMDAGNKARTVAATNMNETSSRSHAVFTIVFTQKKHDNETNLSTEKVSKISLVDLAGSERADSTGAKGTRLKEGANINKSLTTLGKVISALAEVDNCTSKSKKKKKTDFIPYRDSVLTWLLRENLGGNSRTAMVAALSPADINYDETLSTLRYADRVDKLAAALEHHHHHH

These proteins were tested against taxol-stabilized microtubules.

**Q.** B1 was tested. Which k(obs) (min-1) at MT 0 micromolar did it give?
**A.** 0 min⁻¹

**Q.** What about the k(obs) (min-1) at MT 0.25 micromolar of the same protein?
**A.** 0.03 min⁻¹

**Q.** What about the k(obs) (min-1) at MT 0.5 micromolar of the same protein?
**A.** 0.73 min⁻¹

**Q.** What about the k(obs) (min-1) at MT 1 micromolar of the same protein?
**A.** 0.79 min⁻¹

**Q.** And the k(obs) (min-1) at MT 2.5 micromolar?
**A.** 3.02 min⁻¹

**Q.** What about the k(obs) (min-1) at MT 5 micromolar of the same protein?
**A.** 5.91 min⁻¹

**Q.** And the “microtubule-dependent ATP hydrolysis activity” value?
**A.** All of the KIF14 MD proteins showed microtubule-dependent ATP hydrolysis activity

**Q.** With B2 as the protein, how does the k(obs) (min-1) at MT 0 micromolar read?
**A.** 0 min⁻¹

**Q.** And the k(obs) (min-1) at MT 0.25 micromolar?
**A.** 0.73 min⁻¹

**Q.** And the k(obs) (min-1) at MT 0.5 micromolar?
**A.** 1.49 min⁻¹

**Q.** And the k(obs) (min-1) at MT 1 micromolar?
**A.** 4.12 min⁻¹

**Q.** And the k(obs) (min-1) at MT 2.5 micromolar?
**A.** 9.29 min⁻¹

**Q.** What about the k(obs) (min-1) at MT 5 micromolar of the same protein?
**A.** 18.3 min⁻¹

**Q.** What about the “microtubule-dependent ATP hydrolysis activity” value of the same protein?
**A.** All of the KIF14 MD proteins showed microtubule-dependent ATP hydrolysis activity

**Q.** For B3, which k(obs) (min-1) at MT 0 micromolar is on record?
**A.** 0 min⁻¹

**Q.** What about the k(obs) (min-1) at MT 0.25 micromolar of the same protein?
**A.** 0.39 min⁻¹

**Q.** And the k(obs) (min-1) at MT 0.5 micromolar?
**A.** 1.07 min⁻¹

**Q.** And the k(obs) (min-1) at MT 1 micromolar?
**A.** 1.87 min⁻¹

**Q.** What about the k(obs) (min-1) at MT 2.5 micromolar of the same protein?
**A.** 5.79 min⁻¹

**Q.** And the k(obs) (min-1) at MT 5 micromolar?
**A.** 10.2 min⁻¹

**Q.** What about the “microtubule-dependent ATP hydrolysis activity” value of the same protein?
**A.** All of the KIF14 MD proteins showed microtubule-dependent ATP hydrolysis activity

**Q.** Which K1/2 (MT) does the source give for B4 here?
**A.** 10.6 µM

**Q.** And the “Km (Michaelis-Menten fit of microtubule utilization)” value?
**A.** a Km of 2.6+/-1.1 (s.d.)

**Q.** And the k(obs) (min-1) at MT 0 micromolar?
**A.** 0 min⁻¹

**Q.** What about the k(obs) (min-1) at MT 0.25 micromolar of the same protein?
**A.** 0.36 min⁻¹

**Q.** What about the k(obs) (min-1) at MT 0.5 micromolar of the same protein?
**A.** 1.57 min⁻¹

**Q.** What about the k(obs) (min-1) at MT 1 micromolar of the same protein?
**A.** 2.79 min⁻¹

**Q.** And the k(obs) (min-1) at MT 2.5 micromolar?
**A.** 9.1 min⁻¹

**Q.** What about the k(obs) (min-1) at MT 5 micromolar of the same protein?
**A.** 13.2 min⁻¹

**Q.** And the “kcat (Michaelis-Menten fit of microtubule utilization)” value?
**A.** a kcat of 21.3+/-3.5 (s.d.)

**Q.** What about the “kcat/Km under optimized conditions (MES, pH 6.0, 40 mM KCl)” value of the same protein?
**A.** compared to 13.2 under optimized conditions (MES, pH 6.0,40 mM KCl)

**Q.** And the “kcat/Km under unoptimized conditions (K-PIPES, pH 6.7, 90 mM KCl)” value?
**A.** the kcat/Km for the V342-K720 motor domain (SEQ ID NO:4) under unoptimized conditions (K-PIPES, pH 6.7, 90 mM KCl) was 224

**Q.** What about the “microtubule-dependent ATP hydrolysis activity” value of the same protein?
**A.** All of the KIF14 MD proteins showed microtubule-dependent ATP hydrolysis activity

**Q.** With B5 as the protein, how does the K1/2 (MT) read?
**A.** 0.3 µM

**Q.** For B6, which K1/2 (MT) is on record?
**A.** 0.17 µM

**Q.** How did the K1/2 (MT) turn out when B7 was run?
**A.** 0.34 µM

**Q.** Which K1/2 (MT) does the source give for B8 here?
**A.** 1.1 µM

**Q.** Which K1/2 (MT) does the source give for B9 here?
**A.** 1.6 µM

**Q.** With B10 as the protein, how does the K1/2 (MT) read?
**A.** 0.24 µM

**Q.** With B11 as the protein, how does the K1/2 (MT) read?
**A.** 0.035 µM
